Data: article doi:10.1101/2020.02.28.970301
Blank lines part the entries; values can stand above or below the molecule they belong to.

How the values were obtained:
[1] = target: MBP-RAMP1.24-111-(GS)5-CLR.29-144-H6 (human) (UniProt O60894); test: fluorescence polarisation
[2] = target: MBP-RAMP3.25-111-(GS)5-CLR.29-144-H6 (human) (UniProt O60896); test: fluorescence polarisation
[3] = target: MBP-RAMP2.55-140[L106R]-(GS)5-CLR.29-144-H6 (human) (UniProt O60895); test: fluorescence polarisation
[4] = target: RAMP2:CLR full-length receptor complex (AM1 receptor) (human) (UniProt O60895)
[5] = target: RAMP3:CLR full-length receptor complex (AM2 receptor) (human) (UniProt O60896)
[6] = target: RAMP1:CLR full-length receptor complex (CGRP receptor) (human) (UniProt O60894)
[7] = target: T1, MBP-RAMP1.24-111-(GS)5-CLR.29-144-H6 (human), O60894; test: fluorescence polarisation
T1 chain: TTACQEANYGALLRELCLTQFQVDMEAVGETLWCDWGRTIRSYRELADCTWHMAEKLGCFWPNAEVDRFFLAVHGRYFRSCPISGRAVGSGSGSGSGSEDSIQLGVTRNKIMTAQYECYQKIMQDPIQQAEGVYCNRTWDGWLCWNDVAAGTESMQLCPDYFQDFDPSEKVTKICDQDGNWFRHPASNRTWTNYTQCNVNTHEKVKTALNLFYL

RAMP2:CLR full-length receptor complex (AM1 receptor) (human), sequence (O60895 43-175, chain 1 of 2): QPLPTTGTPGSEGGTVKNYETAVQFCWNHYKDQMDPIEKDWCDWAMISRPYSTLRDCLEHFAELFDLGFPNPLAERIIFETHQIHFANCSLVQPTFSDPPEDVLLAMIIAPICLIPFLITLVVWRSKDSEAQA
RAMP2:CLR full-length receptor complex (AM1 receptor) (human), sequence (Q16602 23-461, chain 2 of 2, further chain): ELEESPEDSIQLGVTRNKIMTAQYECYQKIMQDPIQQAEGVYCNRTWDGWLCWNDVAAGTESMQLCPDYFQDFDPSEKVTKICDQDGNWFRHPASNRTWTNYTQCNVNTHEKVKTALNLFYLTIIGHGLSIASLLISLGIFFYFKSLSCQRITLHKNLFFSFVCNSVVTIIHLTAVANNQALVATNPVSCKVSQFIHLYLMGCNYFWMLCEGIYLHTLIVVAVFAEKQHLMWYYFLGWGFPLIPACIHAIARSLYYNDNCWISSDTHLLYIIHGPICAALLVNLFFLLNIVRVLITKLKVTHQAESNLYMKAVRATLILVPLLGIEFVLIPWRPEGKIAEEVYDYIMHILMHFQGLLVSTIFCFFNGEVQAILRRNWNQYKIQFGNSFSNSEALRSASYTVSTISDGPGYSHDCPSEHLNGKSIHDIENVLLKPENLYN
RAMP3:CLR full-length receptor complex (AM2 receptor) (human), sequence (O60896 24-148, chain 1 of 2): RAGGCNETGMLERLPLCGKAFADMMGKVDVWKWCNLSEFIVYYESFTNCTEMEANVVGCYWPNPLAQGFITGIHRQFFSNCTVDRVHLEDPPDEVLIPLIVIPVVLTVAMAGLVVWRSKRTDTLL
RAMP3:CLR full-length receptor complex (AM2 receptor) (human), sequence (Q16602 23-461, chain 2 of 2, further chain): as the sequence (Q16602 23-461, chain 2 of 2, further chain) above
RAMP1:CLR full-length receptor complex (CGRP receptor) (human), sequence (O60894 27-148, chain 1 of 2): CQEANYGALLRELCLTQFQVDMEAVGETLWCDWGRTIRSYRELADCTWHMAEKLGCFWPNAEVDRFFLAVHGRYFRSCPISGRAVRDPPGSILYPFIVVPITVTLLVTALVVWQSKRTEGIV
RAMP1:CLR full-length receptor complex (CGRP receptor) (human), sequence (Q16602 23-461, chain 2 of 2, further chain): as the sequence (Q16602 23-461, chain 2 of 2, further chain) above

Molecule: AM(37-52) S48G/Q50W (peptide)
- fold increase in affinity against Q50W [2]: 6 fold
- fold increase in affinity against Q50W [3]: 13 fold
- fold increase in affinity against Q50W [1]: 6 fold

Molecule: AM(37-52) S45R/K46A/S48G/Q50W (peptide)
- fold decrease in affinity against S45R/K46L/S48G/Q50W [2]: 10 fold
- fold decrease in affinity against S45R/K46L/S48G/Q50W [3]: 10 fold
- fold decrease in affinity against S45R/K46L/S48G/Q50W [1]: 10 fold

Molecule: AM(37-52) S45R/K46L/Q50W (peptide)
- fold increase in affinity against K46L/Q50W [2]: 5 fold
- fold increase in affinity against K46L/Q50W [3]: 17 fold
- fold increase in affinity against K46L/Q50W [1]: 5 fold

Molecule: CGRP(8-37) N31D/S34P/K35W/A36S (peptide)
- cAMP antagonism in COS-7 cells; estimated receptor residence time [4]: 5.2 h
- cAMP antagonism in COS-7 cells; estimated receptor residence time [5]: 11 h
- cAMP antagonism in COS-7 cells; estimated receptor residence time [6]: 12.5 h

Molecule: GPAGRQDSAPVDPSSPWSY (modifications not checked) [AM2/IMD H45W]
- pKI [7]: 6.08

More lines, now with the values ahead:

- pKI [1]: 4.75
Molecule: AM2/IMD S43G/H45W (peptide)

- fold increase in affinity against wild-type AM [3]: 5 fold
Molecule: AM S48G (peptide)

- antagonism of cAMP signalling in COS-7 cells, apparent KB (Gaddum/Schild) [4]: 80 pM
Molecule: AM(22-52) S48G/Q50W (peptide)
